Patent publication US20180072804A1 (Hoffmann-La Roche, published 2018)

Tests used:
[1] = biological target: monomeric cyno Tim3-ECD (cynomolgus); assay: SPR, Ab captured on anti-mouse IgG, 25 C
monomeric human Tim3-ECD [2] = biological target: T1, monomeric human Tim3-ECD (human, UniProt Q8TDQ0 22-202); assay: SPR, Ab captured on anti-mouse IgG, 25 C
T1 construct: also called huTim3; hu Tim3-ECD

[3] = biological target: T2, cynomolgus TIM-3 on isolated cyno CD14+ monocytes (cynomolgus monkey, UniProt A0A2K5U3G7 22-294); assay: FACS, cyno CD14+ monocytes, cyno1 (16719M)
T2 construct: whole, on cells; also called cyno monocytes expressing TIM-3
T2 sequence: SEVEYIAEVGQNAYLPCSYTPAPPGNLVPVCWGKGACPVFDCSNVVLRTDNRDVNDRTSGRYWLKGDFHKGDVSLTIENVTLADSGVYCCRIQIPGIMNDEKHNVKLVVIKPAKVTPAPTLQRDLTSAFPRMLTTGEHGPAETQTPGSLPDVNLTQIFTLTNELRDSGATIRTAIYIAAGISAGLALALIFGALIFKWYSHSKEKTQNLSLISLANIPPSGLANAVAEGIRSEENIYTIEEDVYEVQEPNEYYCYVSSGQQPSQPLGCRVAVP
Source text: (§1) CD14+ Monocytes were isolated from cynomolgus monkey anticoagulated peripheral blood (Covance) by density gradient centrifugation using Ficoll-Paque (GE Healthcare) (see General Protocols in the User Manuals or visit www.miltenyibiotec.com/protocols) and subsequent positive selection via NHP CD14 MicroBeads. First the CD14+ cells are magnetically labeled with CD14 MicroBeads. Then the cell suspension is loaded onto a MACS® Column which is placed in the magnetic field of a MACS Separator. The magnetically labeled CD14+ cells are retained in the column. The unlabeled cells run through, this cell fraction is depleted of CD14+ cells. After removal of the column from the magnetic field, the magnetically retained CD14+ cells can be eluted as the positively selected cell fraction. After centrifugation at 200×g for 10 min at room temperature the monocytes were harvested and used directly in binding assay or resuspended in freezing medium (10% DMSO, 90% FCS) at 1.0E+07 cells/ml and stored in liquid nitrogen.
(§2) After washing and centrifugation MFI signals of stained cells were analyzed by BD Biosciences FACSCanto flow cytometer.

[4] = biological target: T2, cynomolgus TIM-3 on isolated cyno CD14+ …; assay: FACS, cyno CD14+ monocytes, cyno2 (17435M)
Source text: as §1, §2

[5] = biological target: T2, cynomolgus TIM-3 on isolated cyno CD14+ …; assay: FACS, cyno CD14+ monocytes, cyno3 (30085F)
Source text: as §1, §2

[6] = biological target: T3, human TIM3, full length, on cells (human, UniProt Q8TDQ0 22-301); assay: FACS, human CD14+ monocytes, donor1, 10 µg/ml
T3 construct: CHO-K1 cells were transfected with a plasmid for full-length human Tim3; other cells carry endogenous TIM3; also called huTIM-3; CHO-Tim3
Source text: (§3) CD14+ Monocytes were isolated from anticoagulated peripheral blood of healthy donors by density gradient centrifugation using Ficoll-Paque (GE Healthcare) (see General Protocols in the User Manuals or visit www.miltenyibiotec.com/protocols) and subsequent positive selection via CD14 MicroBeads. First the CD14+ cells are magnetically labeled with CD14 MicroBeads. Then the cell suspension is loaded onto a MACS® Column which is placed in the magnetic field of a MACS Separator. The magnetically labeled CD14+ cells are retained in the column. The unlabeled cells run through, this cell fraction is depleted of CD14+ cells. After removal of the column from the magnetic field, the magnetically retained CD14+ cells can be eluted as the positively selected cell fraction. After centrifugation at 200×g for 10 min at room temperature the monocytes were harvested and used directly in binding assay or resuspended in freezing medium (10% DMSO, 90% FCS) at 1.0E+07 cells/ml and stored in liquid nitrogen.
as §2

[7] = biological target: T3, human TIM3, full length, on cells; assay: FACS, human CD14+ monocytes, donor2, 10 µg/ml
Source text: as §3, §2

[8] = biological target: T3, human TIM3, full length, on cells; assay: FACS, human CD14+ monocytes, donor3, 10 µg/ml
Source text: as §3, §2

[9] = biological target: T3, human TIM3, full length, on cells; assay: cell-based or functional assay
[10] = biological target: T3, human TIM3, full length, on cells; assay: cell-based or functional assay; remark: listed apart in the source
[11] = biological target: T3, human TIM3, full length, on cells; assay: cell-based or functional assay; remark: listed apart in the source
Tim3-ECD-His-Biotin = biological target: T4, Tim3-ECD-His-Biotin (human, UniProt Q8TDQ0 22-202, biotinylated with BirA Ligase); assay: ELISA on Tim3-ECD-His-Biotin
T4 construct: Coated on streptavidin plates; also called human Tim3 (ELISA); Biochem Human
Procedure: After washing (3×90 μl/well with PBST-buffer) 25 μl/well sheep-anti-mouse-POD (GE NA9310V) was added in 1:9000 dilution and incubated at RT for 1 h while shaking at 400 rpm rotation. After washing (4×90 μl/well with PBST-buffer) 25 TMB substrate (Calbiochem, #CL07) was added and incubated until OD 1.5-2.5. Then the reaction was stopped by addition of 25 μl/well 1N HCL-solution.

[12] = biological target: T5, Fc-tagged human Tim3-ECD dimer (human, UniProt Q8TDQ0 22-202); assay: SPR, Ab captured on anti-mouse IgG, 25 C
T5 construct: also called huTim3Fc; huFc fused dimeric human Tim3-ECD

[13] = biological target: T3, human TIM3, full length, on cells; assay: cell ELISA, CHO-K1 with full-length human Tim3
Procedure: Then the reaction was stopped by addition of 25 μl/well 1N HCL-solution.

monomeric human Tim3-ECD [14] = biological target: T1, monomeric human Tim3-ECD; assay: SPR, Ab captured on anti-mouse IgG, monomeric Tim3-ECD
[15] = biological target: T5, Fc-tagged human Tim3-ECD dimer; assay: SPR, Ab captured on anti-mouse IgG, dimeric Tim3-ECD-Fc
Procedure: Therefore, an anti-mouse IgG was immobilized by amine coupling to the surface of a (BIAcore) CMS sensor chip. […] The sensor chip surface was regenerated after each analysis cycle. The equilibrium constant KD was finally gained by fitting the data to a 1:1 Langmuir interaction model.
The samples were injected for 30 seconds with a concentration of 200 μg/ml and bound to the spots 1 and 5 of each flow cell, allowing the measurement of eight samples in parallel. […] The flow rate was set to 30 μl/min for the whole run.
Finally the double referenced data was fitted to a 1:1 Langmuir interaction model with the BIAcore B4000 Evaluation Software.

[16] = biological target: T3, human TIM3, full length, on cells; assay: cell-based or functional assay; remark: listed apart in the source

B1: anti-TIM3 antibody Tim3_0022 (antibody, V domains shown)
VH: EVQLQESGPSLVKPSQTLSLTCSVTGDSIASAYWNWIRKFPGNKLEYMGYINYSGSTYYNPSLKSRISITRDTSQNQYYLQLNSVTTEDTATYYCVTGDYFDYWGRGTTLTVSS
VL: DIQMTQSPSSLSAYLGGKVTITCKARQDVRKNIGWYQHKPGKGPRLLIWYTSTLQSGIPSRFSGSGSGRDYSFNINNLEPEDIATYYCLQYDNLPFTFGTGTKLEIR
notes: Mouse monoclonal from hybridoma; also called <TIM-3> Ab(022)
- Kd [1]: 28.4 nM
- Kd (monomeric human Tim3-ECD [2]): 126 nM
- Specific Binding [MFI] [3]: 115 MFI
- Specific Binding [MFI] [4]: 134 MFI
- Specific Binding [MFI] [5]: 138 MFI
- Specific Binding [MFI] [6]: 1470 MFI
- Specific Binding [MFI] [7]: 1110 MFI
- Specific Binding [MFI] [8]: 1240 MFI

B2: Fab-PE24 construct of anti-TIM3 antibody Tim3_0022 (Fab, V domains shown)
VH: EVQLQESGPSLVKPSQTLSLTCSVTGDSIASAYWNWIRKFPGNKLEYMGYINYSGSTYYNPSLKSRISITRDTSQNQYYLQLNSVTTEDTATYYCVTGDYFDYWGRGTTLTVSS
VL: DIQMTQSPSSLSAYLGGKVTITCKARQDVRKNIGWYQHKPGKGPRLLIWYTSTLQSGIPSRFSGSGSGRDYSFNINNLEPEDIATYYCLQYDNLPFTFGTGTKLEIR
- cytotoxicity IC50, CMK [9]: 255 nM
- cytotoxicity IC50, Karpas-299 [9]: 10 nM
- cytotoxicity IC50, MOLM-13 [9]: 579 nM
- cytotoxicity IC50, TF-1 [9]: 299 nM
- cytotoxicity IC50, D1 AML CD34+ PB0136 cells [10]: > 691 nM
- cytotoxicity IC50, D3 AML CD34+ PB0135 cells [10]: > 691 nM

B3: anti-TIM3 antibody Tim3_0021 (antibody, V domains shown)
VH: QVQLQQSGPQLVRPGASVQISCKASGYSFTSYLLHWLKQRPGQGLEWIGMIDPSDSETRLNQKFKDKATLTVDKSSSTAYMQLSSPTSEDSAVYYCARDGYYAWYYFDCWGQGTTLTVSS
VL: DIVLTQSPATLSVTPGDRVSLSCRASQSIGNNLHWYQQKSHESPRLLIKYASHSISGIPSKFSGTGSGTDFTLSFNSVETEDFGMYFCQQSNSWPLTFGAGTKLELK
notes: Mouse monoclonal from hybridoma
- IFNgamma release in MLR, % of rec hu IL-2 control, 1 µg/ml [11]: 101%
- IFNgamma release in MLR, % of rec hu IL-2 control, 10 µg/ml [11]: 108%
- IFNgamma release in MLR, % of rec hu IL-2 control, 40 µg/ml [11]: 112%
- EC50 (Tim3-ECD-His-Biotin): 0.047 µg/mL
- Kd (monomeric human Tim3-ECD [2]): 204 nM
- Kd [12]: 4.07 nM
- Specific Binding [MFI] [3]: 348 MFI
- Specific Binding [MFI] [4]: 473 MFI
- Specific Binding [MFI] [5]: 399 MFI
- Specific Binding [MFI] [6]: 1130 MFI
- Specific Binding [MFI] [7]: 951 MFI
- Specific Binding [MFI] [8]: 1200 MFI
- EC50 [13]: 0.073 µg/mL
- Kd (monomeric human Tim3-ECD [14]): 204 nM
- Kd [15]: 4.1 nM

B4: Fab-PE24 construct of anti-TIM3 antibody Tim3_0016 (Fab, V domains shown)
VH: QVTLKESGPGILQPSQTLRLTCSFSGFSLSTSGMSVGWIRQPSGKGLEWLAHIWLNDDVFFNPALKSRLTISKDTSNNQVFLQIASVVTADTATYYCVRANGYLYALDYWGQGTSVTVSS
VL: QIVLTQSPAIMSASPGQKVTITCSASSSVNYTQWYQQKLGSSPKLWIYDAFKLAPGVPARFSGSGTGTSYSLTISSMEAEDAASYFCHQWSSYPWTFGGGTKLEIK
- cytotoxicity IC50, CMK [9]: 225 nM
- cytotoxicity IC50, Karpas-299 [9]: 4 nM
- cytotoxicity IC50, MOLM-13 [9]: 459 nM
- cytotoxicity IC50, TF-1 [9]: 534 nM
- cytotoxicity IC50, D1 AML CD34+ PB0136 cells [10]: > 691 nM
- cytotoxicity IC50, D3 AML CD34+ PB0135 cells [10]: > 691 nM

B5: anti-TIM3 antibody Tim3_0038 (antibody, V domains shown)
VH: EVQLQQSGAEPLKPGASVKLTCTTSGFNIKDYYIHWVKQRSDQGLEWIGRIDPEDGELIYAPKFQDKATITVDTSSNIAYLQLNSLTSEDTAVYYCSRDHGYVGWFAYWGQGTLVTVSA
VL: NVVMTQSPKSMIMSVGQRVTLNCKASENVDTYVSWYQQKPEQSPKLLIYGASNRYTGVPDRFTGSRSATDFTLTISSVQAEDLAVYYCGQSYSYPWTFGGGTKLEFR
notes: as for B3
- IFNgamma release in MLR, % of rec hu IL-2 control, 1 µg/ml [11]: 1%
- IFNgamma release in MLR, % of rec hu IL-2 control, 10 µg/ml [11]: 38%
- IFNgamma release in MLR, % of rec hu IL-2 control, 40 µg/ml [11]: 51%
- cytotoxicity IC50, Pfeiffer cells, with <mFc> Fab PE24 [16]: < 0.002 nM
- EC50 (Tim3-ECD-His-Biotin): 0.083 µg/mL
- Kd (monomeric human Tim3-ECD [2]): 7.56 nM
- Kd [12]: 0.569 nM
- Specific Binding [MFI] [3]: 97 MFI
- Specific Binding [MFI] [4]: 107 MFI
- Specific Binding [MFI] [5]: 120 MFI
- Specific Binding [MFI] [6]: 1640 MFI
- Specific Binding [MFI] [7]: 1370 MFI
- Specific Binding [MFI] [8]: 1400 MFI
- EC50 [13]: 0.029 µg/mL
- Kd (monomeric human Tim3-ECD [14]): 7.6 nM
- Kd [15]: 0.6 nM
